Holding throughout (experiment): Table 3; relative to wild-type Fc; method not stated
One assay deals with CD16A F158 (human, UniProt P08637 17-208, limits assumed).
The next assay has as its target T1, CD32B (FcγRII-B) (UniProt P31994 43-217, limits assumed).
T1 construct: No species or construct stated
T1 sequence (looked up): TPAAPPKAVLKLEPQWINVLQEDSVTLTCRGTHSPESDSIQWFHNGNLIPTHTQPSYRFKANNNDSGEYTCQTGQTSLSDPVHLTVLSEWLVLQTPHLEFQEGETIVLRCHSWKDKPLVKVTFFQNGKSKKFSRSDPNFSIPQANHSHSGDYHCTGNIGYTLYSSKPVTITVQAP

The next assay deals with CD16A V158 (human, UniProt P08637 17-208, limits assumed).
CD16A V158, sequence (P08637 17-208 F176V limits assumed): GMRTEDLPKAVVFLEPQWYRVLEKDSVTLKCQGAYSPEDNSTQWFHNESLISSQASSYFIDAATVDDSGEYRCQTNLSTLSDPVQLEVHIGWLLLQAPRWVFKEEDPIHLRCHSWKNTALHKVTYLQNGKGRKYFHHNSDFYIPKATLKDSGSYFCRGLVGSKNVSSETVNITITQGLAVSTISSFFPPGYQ

CD16A F158, sequence (P08637 17-208 limits assumed): as the sequence (P08637 17-208 F176V limits assumed) above, with V160F counted along it

B1: Fc variant D270E G316D P396L R416G (other, UniProt P01857-1 99-330, looked up, name in EU numbering)
chain: EPKSCDKTHTCPPCPAPELLGGPSVFLFPPKPKDTLMISRTPEVTCVVVDVSHEEPEVKFNWYVDGVEVHNAKTKPREEQYNSTYRVVSVLTVLHQDWLNDKEYKCKVSNKALPAPIEKTISKAKGQPREPQVYTLPPSRDELTKNQVSLTCLVKGFYPSDIAVEWESNGQPENNYKTTPLVLDSDGSFFLYSKLTVDKSGWQQGNVFSCSVMHEALHNHYTQKSLSLSPGK
notes: domain: Fc region; positions are EU index; also called D270E P396L G316D R416G
As to B1, the “binding relative to wild-type Fc (fold)” value amounted to 0.94 with CD16A F158, 1.07 with CD32B (FcγRII-B) and 1.22 in the assay with CD16A V158.

B2: Fc variant F243L R292P V305I (other, UniProt P01857-1 99-330, looked up, name in EU numbering)
chain: EPKSCDKTHTCPPCPAPELLGGPSVFLLPPKPKDTLMISRTPEVTCVVVDVSHEDPEVKFNWYVDGVEVHNAKTKPPEEQYNSTYRVVSILTVLHQDWLNGKEYKCKVSNKALPAPIEKTISKAKGQPREPQVYTLPPSRDELTKNQVSLTCLVKGFYPSDIAVEWESNGQPENNYKTTPPVLDSDGSFFLYSKLTVDKSRWQQGNVFSCSVMHEALHNHYTQKSLSLSPGK
notes: domain: Fc region; positions are EU index
Turning to B2, the entries for the “binding relative to wild-type Fc (fold)” value in the assay with CD16A F158 and with CD16A V158 were 1.43 and 2.56, respectively.

B3: Fc variant D270E P396L Q419H (other, UniProt P01857-1 99-330, looked up, name in EU numbering)
chain: EPKSCDKTHTCPPCPAPELLGGPSVFLFPPKPKDTLMISRTPEVTCVVVDVSHEEPEVKFNWYVDGVEVHNAKTKPREEQYNSTYRVVSVLTVLHQDWLNGKEYKCKVSNKALPAPIEKTISKAKGQPREPQVYTLPPSRDELTKNQVSLTCLVKGFYPSDIAVEWESNGQPENNYKTTPLVLDSDGSFFLYSKLTVDKSRWQHGNVFSCSVMHEALHNHYTQKSLSLSPGK
notes: as for B2
With B3, the “binding relative to wild-type Fc (fold)” value in the assay with CD32B (FcγRII-B) turned out to be 0.68; in the assay with CD16A V158, 1.64.

B4: Fc variant F243L R292P Y300L P396L (other, UniProt P01857-1 99-330, looked up, name in EU numbering)
chain: EPKSCDKTHTCPPCPAPELLGGPSVFLLPPKPKDTLMISRTPEVTCVVVDVSHEDPEVKFNWYVDGVEVHNAKTKPPEEQYNSTLRVVSVLTVLHQDWLNGKEYKCKVSNKALPAPIEKTISKAKGQPREPQVYTLPPSRDELTKNQVSLTCLVKGFYPSDIAVEWESNGQPENNYKTTPLVLDSDGSFFLYSKLTVDKSRWQQGNVFSCSVMHEALHNHYTQKSLSLSPGK
notes: as for B2
As for B4, the “binding relative to wild-type Fc (fold)” value in the assay with CD16A F158 is 5.62; with CD32B (FcγRII-B), 1.07; with CD16A V158, 10.1.

B5: Fc variant F243L P247L D270E N421K (other, UniProt P01857-1 99-330, looked up, name in EU numbering)
chain: EPKSCDKTHTCPPCPAPELLGGPSVFLLPPKLKDTLMISRTPEVTCVVVDVSHEEPEVKFNWYVDGVEVHNAKTKPREEQYNSTYRVVSVLTVLHQDWLNGKEYKCKVSNKALPAPIEKTISKAKGQPREPQVYTLPPSRDELTKNQVSLTCLVKGFYPSDIAVEWESNGQPENNYKTTPPVLDSDGSFFLYSKLTVDKSRWQQGKVFSCSVMHEALHNHYTQKSLSLSPGK
notes: as for B2
Regarding B5, the “binding relative to wild-type Fc (fold)” value with CD16A F158 was 3.45; with CD32B (FcγRII-B), 0.32; with CD16A V158, 2.3.

B6: Fc variant F243L R255L D270E P396L (other, UniProt P01857-1 99-330, looked up, name in EU numbering)
chain: EPKSCDKTHTCPPCPAPELLGGPSVFLLPPKPKDTLMISLTPEVTCVVVDVSHEEPEVKFNWYVDGVEVHNAKTKPREEQYNSTYRVVSVLTVLHQDWLNGKEYKCKVSNKALPAPIEKTISKAKGQPREPQVYTLPPSRDELTKNQVSLTCLVKGFYPSDIAVEWESNGQPENNYKTTPLVLDSDGSFFLYSKLTVDKSRWQQGNVFSCSVMHEALHNHYTQKSLSLSPGK
notes: as for B2
As for B6, the “binding relative to wild-type Fc (fold)” value in the assay with CD16A F158 turned out to be 1.64; with CD32B (FcγRII-B) it was 0.38; in the assay with CD16A V158 it was 1.75.

B7: Fc variant F243L D270E G316D R416G (other, UniProt P01857-1 99-330, looked up, name in EU numbering)
chain: EPKSCDKTHTCPPCPAPELLGGPSVFLLPPKPKDTLMISRTPEVTCVVVDVSHEEPEVKFNWYVDGVEVHNAKTKPREEQYNSTYRVVSVLTVLHQDWLNDKEYKCKVSNKALPAPIEKTISKAKGQPREPQVYTLPPSRDELTKNQVSLTCLVKGFYPSDIAVEWESNGQPENNYKTTPPVLDSDGSFFLYSKLTVDKSGWQQGNVFSCSVMHEALHNHYTQKSLSLSPGK
notes: as for B2
Regarding B7, the “binding relative to wild-type Fc (fold)” value with CD16A F158 was 1.34; with CD32B (FcγRII-B), 0.2; with CD16A V158, 1.5.

B8: Fc variant F243L D270E P396L Q419H (other, UniProt P01857-1 99-330, looked up, name in EU numbering)
chain: EPKSCDKTHTCPPCPAPELLGGPSVFLLPPKPKDTLMISRTPEVTCVVVDVSHEEPEVKFNWYVDGVEVHNAKTKPREEQYNSTYRVVSVLTVLHQDWLNGKEYKCKVSNKALPAPIEKTISKAKGQPREPQVYTLPPSRDELTKNQVSLTCLVKGFYPSDIAVEWESNGQPENNYKTTPLVLDSDGSFFLYSKLTVDKSRWQHGNVFSCSVMHEALHNHYTQKSLSLSPGK
notes: as for B2
Regarding B8, the entries for the “binding relative to wild-type Fc (fold)” value with CD16A F158, with CD32B (FcγRII-B) and with CD16A V158 were 1.15, 0.26 and 1.46, respectively.

B9: Fc variant F243L R292P V305I P396L (other, UniProt P01857-1 99-330, looked up, name in EU numbering)
chain: EPKSCDKTHTCPPCPAPELLGGPSVFLLPPKPKDTLMISRTPEVTCVVVDVSHEDPEVKFNWYVDGVEVHNAKTKPPEEQYNSTYRVVSILTVLHQDWLNGKEYKCKVSNKALPAPIEKTISKAKGQPREPQVYTLPPSRDELTKNQVSLTCLVKGFYPSDIAVEWESNGQPENNYKTTPLVLDSDGSFFLYSKLTVDKSRWQQGNVFSCSVMHEALHNHYTQKSLSLSPGK
notes: as for B2
Consider B9, for which the “binding relative to wild-type Fc (fold)” value was 2.53 with CD16A F158, 0.4 with CD32B (FcγRII-B) and 5.37 with CD16A V158.

B10: Fc variant D270E K392T P396L (other, UniProt P01857-1 99-330, looked up, name in EU numbering)
chain: EPKSCDKTHTCPPCPAPELLGGPSVFLFPPKPKDTLMISRTPEVTCVVVDVSHEEPEVKFNWYVDGVEVHNAKTKPREEQYNSTYRVVSVLTVLHQDWLNGKEYKCKVSNKALPAPIEKTISKAKGQPREPQVYTLPPSRDELTKNQVSLTCLVKGFYPSDIAVEWESNGQPENNYTTTPLVLDSDGSFFLYSKLTVDKSRWQQGNVFSCSVMHEALHNHYTQKSLSLSPGK
notes: as for B2
In the case of B10, the “binding relative to wild-type Fc (fold)” value stood at 2.28 with CD16A F158, 0.79 with CD32B (FcγRII-B) and 1.81 in the assay with CD16A V158.

B11: Fc variant D270E G316D R416G (other, UniProt P01857-1 99-330, looked up, name in EU numbering)
chain: EPKSCDKTHTCPPCPAPELLGGPSVFLFPPKPKDTLMISRTPEVTCVVVDVSHEEPEVKFNWYVDGVEVHNAKTKPREEQYNSTYRVVSVLTVLHQDWLNDKEYKCKVSNKALPAPIEKTISKAKGQPREPQVYTLPPSRDELTKNQVSLTCLVKGFYPSDIAVEWESNGQPENNYKTTPPVLDSDGSFFLYSKLTVDKSGWQQGNVFSCSVMHEALHNHYTQKSLSLSPGK
notes: as for B2
With B11, the “binding relative to wild-type Fc (fold)” value with CD16A F158 worked out at 2.49; with CD32B (FcγRII-B), 0.78; with CD16A V158, 2.18.

B12: Fc variant P247L D270E N421K (other, UniProt P01857-1 99-330, looked up, name in EU numbering)
chain: EPKSCDKTHTCPPCPAPELLGGPSVFLFPPKLKDTLMISRTPEVTCVVVDVSHEEPEVKFNWYVDGVEVHNAKTKPREEQYNSTYRVVSVLTVLHQDWLNGKEYKCKVSNKALPAPIEKTISKAKGQPREPQVYTLPPSRDELTKNQVSLTCLVKGFYPSDIAVEWESNGQPENNYKTTPPVLDSDGSFFLYSKLTVDKSRWQQGKVFSCSVMHEALHNHYTQKSLSLSPGK
notes: as for B2
B12: the figures for the “binding relative to wild-type Fc (fold)” value with CD16A F158, with CD32B (FcγRII-B) and in the assay with CD16A V158 were 2.46, 0.58 and 1.89, respectively.

B13: Fc variant R255L D270E R292G P396L (other, UniProt P01857-1 99-330, looked up, name in EU numbering)
chain: EPKSCDKTHTCPPCPAPELLGGPSVFLFPPKPKDTLMISLTPEVTCVVVDVSHEEPEVKFNWYVDGVEVHNAKTKPGEEQYNSTYRVVSVLTVLHQDWLNGKEYKCKVSNKALPAPIEKTISKAKGQPREPQVYTLPPSRDELTKNQVSLTCLVKGFYPSDIAVEWESNGQPENNYKTTPLVLDSDGSFFLYSKLTVDKSRWQQGNVFSCSVMHEALHNHYTQKSLSLSPGK
notes: as for B2
On to B13, for which the “binding relative to wild-type Fc (fold)” value with CD32B (FcγRII-B) was found to be 0.65.

B14: Fc variant F243L P247L N421K (other, UniProt P01857-1 99-330, looked up, name in EU numbering)
chain: EPKSCDKTHTCPPCPAPELLGGPSVFLLPPKLKDTLMISRTPEVTCVVVDVSHEDPEVKFNWYVDGVEVHNAKTKPREEQYNSTYRVVSVLTVLHQDWLNGKEYKCKVSNKALPAPIEKTISKAKGQPREPQVYTLPPSRDELTKNQVSLTCLVKGFYPSDIAVEWESNGQPENNYKTTPPVLDSDGSFFLYSKLTVDKSRWQQGKVFSCSVMHEALHNHYTQKSLSLSPGK
notes: as for B2
As to B14, the “binding relative to wild-type Fc (fold)” value was found to be 1.71 with CD16A F158, 0.17 with CD32B (FcγRII-B) and 1.89 with CD16A V158.

B15: Fc variant F243L D270E K392T P396L (other, UniProt P01857-1 99-330, looked up, name in EU numbering)
chain: EPKSCDKTHTCPPCPAPELLGGPSVFLLPPKPKDTLMISRTPEVTCVVVDVSHEEPEVKFNWYVDGVEVHNAKTKPREEQYNSTYRVVSVLTVLHQDWLNGKEYKCKVSNKALPAPIEKTISKAKGQPREPQVYTLPPSRDELTKNQVSLTCLVKGFYPSDIAVEWESNGQPENNYTTTPLVLDSDGSFFLYSKLTVDKSRWQQGNVFSCSVMHEALHNHYTQKSLSLSPGK
notes: as for B2
With B15, the “binding relative to wild-type Fc (fold)” value was 2.44 with CD16A F158, 0.44 in the assay with CD32B (FcγRII-B) and 3.16 in the assay with CD16A V158.

B16: Fc variant F243L R292P Y300L V305I P396L (other, UniProt P01857-1 99-330, looked up, name in EU numbering)
chain: EPKSCDKTHTCPPCPAPELLGGPSVFLLPPKPKDTLMISRTPEVTCVVVDVSHEDPEVKFNWYVDGVEVHNAKTKPPEEQYNSTLRVVSILTVLHQDWLNGKEYKCKVSNKALPAPIEKTISKAKGQPREPQVYTLPPSRDELTKNQVSLTCLVKGFYPSDIAVEWESNGQPENNYKTTPLVLDSDGSFFLYSKLTVDKSRWQQGNVFSCSVMHEALHNHYTQKSLSLSPGK
notes: domain: Fc region
With B16, the “binding relative to wild-type Fc (fold)” value with CD16A F158 was 8.25; with CD32B (FcγRII-B), 1.38; in the assay with CD16A V158, 10.1.
